# Source: patent publication US20260070987A1
# Numbering of substitutions follows the chain as printed. Numbers in names are those of the source.
# B1: equine IgG7 A426Q mutant (antibody, part only; not given: variable domains, not shown: another chain or arm of the molecule)
# constant: ASTTAPKVFPLASHSAATSGSTVALGCLVSSYFPEPVTVSWNSGALTSGVHTFPSVLQSSGLYSLSSMVTVPASSLKSQTYICNVAHPASSTKVDKKIVIKECGGCPTCPECLSVGPSVFIFPPKPKDVLMISRTPTVTCVVVDVGHDFPDVQFNWYVDGVETHTATTEPKQEQNNSTYRVVSILAIQHKDWLSGKEFKCKVNNQALPAPVQKTISKPTGQPREPQVYVLAPHRDELSKNKVSVTCLVKDFYPTDIDIEWKSNGQPEPETKYSTTPAQLDSDGSYFLYSKLTVETNRWQQGTTFTCQVMHEALHNHYTEKSVSKSPGK
# B2: equine IgG7 Y436I mutant (antibody, part only; not given: Variable domains, not shown: another chain or arm of the molecule)
# constant: B1 constant with Q307A, Y317I
# B3: equine IgG7 A426S mutant (antibody, part only; not given: variable domains, not shown: another chain or arm of the molecule)
# constant: B1 constant with Q307S
# B4: equine IgG7 M428D mutant (antibody, part only; not given: variable domains, not shown: another chain or arm of the molecule)
# constant: B1 constant with Q307A, M309D
# B5: equine IgG7 M428E mutant (antibody, part only; not given: variable domains, not shown: another chain or arm of the molecule)
# constant: B1 constant with Q307A, M309E
# B6: equine IgG7 N434K mutant (antibody, part only; not given: variable domains, not shown: another chain or arm of the molecule; small tags and cut ends)
# constant: B1 constant with Q307A, N315K
# B7: equine IgG7 N434T mutant (antibody, part only; not given: variable domains, not shown: another chain or arm of the molecule)
# constant: B1 constant with Q307A, N315T
# B8: equine IgG7 Y436A mutant (antibody, part only; not given: Variable domains, not shown: another chain or arm of the molecule)
# constant: B1 constant with Q307A, Y317A
# B9: equine IgG7 D312F mutant (antibody, part only; not given: Variable domains, not shown: another chain or arm of the molecule)
# constant: B1 constant with D191F, Q307A
# B10: equine IgG7 N434G mutant (antibody, part only; not given: variable domains, not shown: another chain or arm of the molecule; small tags and cut ends)
# constant: B1 constant with Q307A, N315G
# B11: equine IgG7 M428F mutant (antibody, part only; not given: variable domains, not shown: another chain or arm of the molecule)
# constant: B1 constant with Q307A, M309F
# B12: equine IgG7 M428H mutant (antibody, part only; not given: variable domains, not shown: another chain or arm of the molecule)
# constant: B1 constant with Q307A, M309H
# B13: equine IgG7 D312I mutant (antibody, part only; not given: variable domains, not shown: another chain or arm of the molecule)
# constant: B1 constant with D191I, Q307A
# B14: equine IgG7 M428W mutant (antibody, part only; not given: variable domains, not shown: another chain or arm of the molecule)
# constant: B1 constant with Q307A, M309W
# B15: equine IgG7 M428S mutant (antibody, part only; not given: variable domains, not shown: another chain or arm of the molecule)
# constant: B1 constant with Q307A, M309S
# B16: equine IgG7 D312C mutant (antibody, part only; not given: variable domains, not shown: another chain or arm of the molecule)
# constant: B1 constant with D191C, Q307A
# B17: equine IgG7 D312S mutant (antibody, part only; not given: variable domains, not shown: another chain or arm of the molecule)
# constant: B1 constant with D191S, Q307A
# B18: equine IgG7 N434P mutant (antibody, part only; not given: Variable domains, not shown: another chain or arm of the molecule)
# constant: B1 constant with Q307A, N315P
# B19: equine IgG7 A426Y mutant (antibody, part only; not given: variable domains, not shown: another chain or arm of the molecule)
# constant: B1 constant with Q307Y
# B20: equine IgG7 N434V mutant (antibody, part only; not given: Variable domains, not shown: another chain or arm of the molecule)
# constant: B1 constant with Q307A, N315V
# B21: equine IgG7 D312Q mutant (antibody, part only; not given: variable domains, not shown: another chain or arm of the molecule)
# constant: B1 constant with D191Q, Q307A
# B22: equine IgG7 D312Y mutant (antibody, part only; not given: variable domains, not shown: another chain or arm of the molecule)
# constant: B1 constant with D191Y, Q307A
# B23: equine IgG7 M428I mutant (antibody, part only; not given: variable domains, not shown: another chain or arm of the molecule)
# constant: B1 constant with Q307A, M309I
# B24: equine IgG7 N434C mutant (antibody, part only; not given: variable domains, not shown: another chain or arm of the molecule)
# constant: B1 constant with Q307A, N315C
# B25: equine IgG7 Y436G mutant (antibody, part only; not given: variable domains, not shown: another chain or arm of the molecule)
# constant: B1 constant with Q307A, Y317G
# B26: equine IgG7 N434A mutant (antibody, part only; not given: variable domains, not shown: another chain or arm of the molecule)
# constant: B1 constant with Q307A, N315A
# B27: equine IgG7 N434F mutant (antibody, part only; not given: Variable domains, not shown: another chain or arm of the molecule; small tags and cut ends)
# constant: B1 constant with Q307A, N315F
# B28: equine IgG7 A426V mutant (antibody, part only; not given: variable domains, not shown: another chain or arm of the molecule)
# constant: B1 constant with Q307V
# B29: equine IgG7 D312G mutant (antibody, part only; not given: Variable domains, not shown: another chain or arm of the molecule)
# constant: B1 constant with D191G, Q307A
# B30: equine IgG7 D312N mutant (antibody, part only; not given: Variable domains, not shown: another chain or arm of the molecule)
# constant: B1 constant with D191N, Q307A
# B31: equine IgG7 N434Y mutant (antibody, part only; not given: Variable domains, not shown: another chain or arm of the molecule)
# constant: B1 constant with Q307A, N315Y
# B32: equine IgG7 N434R mutant (antibody, part only; not given: Variable domains, not shown: another chain or arm of the molecule)
# constant: B1 constant with Q307A, N315R
# B33: equine IgG7 D312M mutant (antibody, part only; not given: variable domains, not shown: another chain or arm of the molecule)
# constant: B1 constant with D191M, Q307A
# B34: equine IgG7 Y436F mutant (antibody, part only; not given: variable domains, not shown: another chain or arm of the molecule)
# constant: B1 constant with Q307A, Y317F
# B35: equine IgG7 M428Q mutant (antibody, part only; not given: variable domains, not shown: another chain or arm of the molecule)
# constant: B1 constant with Q307A, M309Q
# B36: equine IgG7 D312P mutant (antibody, part only; not given: variable domains, not shown: another chain or arm of the molecule)
# constant: B1 constant with D191P, Q307A
# B37: equine IgG7 D312K mutant (antibody, part only; not given: variable domains, not shown: another chain or arm of the molecule)
# constant: B1 constant with D191K, Q307A
# B38: equine IgG7 D312H mutant (antibody, part only; not given: variable domains, not shown: another chain or arm of the molecule)
# constant: B1 constant with D191H, Q307A
# B39: equine IgG7 A426R mutant (antibody, part only; not given: Variable domains, not shown: another chain or arm of the molecule)
# constant: B1 constant with Q307R
# B40: equine IgG7 D312L mutant (antibody, part only; not given: variable domains, not shown: another chain or arm of the molecule)
# constant: B1 constant with D191L, Q307A
# B41: equine IgG7 D312V mutant (antibody, part only; not given: variable domains, not shown: another chain or arm of the molecule)
# constant: B1 constant with D191V, Q307A
# B42: equine IgG7 D312R mutant (antibody, part only; not given: Variable domains, not shown: another chain or arm of the molecule)
# constant: B1 constant with D191R, Q307A
# B43: equine IgG7 D312E mutant (antibody, part only; not given: variable domains, not shown: another chain or arm of the molecule)
# constant: B1 constant with D191E, Q307A
# B44: equine IgG7 N434S mutant (antibody, part only; not given: variable domains, not shown: another chain or arm of the molecule)
# constant: B1 constant with Q307A, N315S
# B45: equine IgG7 N434D mutant (antibody, part only; not given: variable domains, not shown: another chain or arm of the molecule)
# constant: B1 constant with Q307A, N315D
# B46: equine IgG7 Y436E mutant (antibody, part only; not given: variable domains, not shown: another chain or arm of the molecule)
# constant: B1 constant with Q307A, Y317E
# B47: equine IgG7 N434E mutant (antibody, part only; not given: variable domains, not shown: another chain or arm of the molecule)
# constant: B1 constant with Q307A, N315E
# B48: equine IgG7 D312T mutant (antibody, part only; not given: variable domains, not shown: another chain or arm of the molecule)
# constant: B1 constant with D191T, Q307A
# B49: equine IgG7 Y436C mutant (antibody, part only; not given: variable domains, not shown: another chain or arm of the molecule)
# constant: B1 constant with Q307A, Y317C
# B50: equine IgG7 M428G mutant (antibody, part only; not given: variable domains, not shown: another chain or arm of the molecule)
# constant: B1 constant with Q307A, M309G
# B51: equine IgG7 N434W mutant (antibody, part only; not given: variable domains, not shown: another chain or arm of the molecule)
# constant: B1 constant with Q307A, N315W
# B52: equine IgG7 Y436D mutant (antibody, part only; not given: Variable domains, not shown: another chain or arm of the molecule)
# constant: B1 constant with Q307A, Y317D
# B53: equine IgG7 M428K mutant (antibody, part only; not given: variable domains, not shown: another chain or arm of the molecule)
# constant: B1 constant with Q307A, M309K
# B54: equine IgG7 A426W mutant (antibody, part only; not given: variable domains, not shown: another chain or arm of the molecule)
# constant: B1 constant with Q307W
# B55: equine IgG7 N434H mutant (antibody, part only; not given: Variable domains, not shown: another chain or arm of the molecule; small tags and cut ends)
# constant: B1 constant with Q307A, N315H
# B56: equine IgG7 M428L mutant (antibody, part only; not given: Variable domains, not shown: another chain or arm of the molecule)
# constant: B1 constant with Q307A, M309L
# B57: equine IgG7 D312A mutant (antibody, part only; not given: Variable domains, not shown: another chain or arm of the molecule)
# constant: B1 constant with D191A, Q307A
# B58: equine IgG7 M428C mutant (antibody, part only; not given: Variable domains, not shown: another chain or arm of the molecule)
# constant: B1 constant with Q307A, M309C
# B59: equine IgG7 A426T mutant (antibody, part only; not given: Variable domains, not shown: another chain or arm of the molecule)
# constant: B1 constant with Q307T
# B60: equine IgG7 D312W mutant (antibody, part only; not given: variable domains, not shown: another chain or arm of the molecule)
# constant: B1 constant with D191W, Q307A
# B61: equine IgG7 M428R mutant (antibody, part only; not given: variable domains, not shown: another chain or arm of the molecule)
# constant: B1 constant with Q307A, M309R
# Molecular target: equine FcRn (large alpha subunit p51) in complex with equine beta-2-microglobulin (equine) (UniProt F6XZ61)
# UniProt F6XZ61, sequence (F6XZ61 entry or part of it, one chain of several): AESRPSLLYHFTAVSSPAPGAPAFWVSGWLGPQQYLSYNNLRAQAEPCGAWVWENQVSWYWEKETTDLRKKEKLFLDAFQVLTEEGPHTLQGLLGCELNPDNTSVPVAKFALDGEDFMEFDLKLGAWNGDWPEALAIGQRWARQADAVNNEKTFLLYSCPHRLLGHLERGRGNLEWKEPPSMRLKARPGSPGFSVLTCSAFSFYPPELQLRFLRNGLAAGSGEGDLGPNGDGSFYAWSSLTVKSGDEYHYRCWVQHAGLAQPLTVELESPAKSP
# Test: SPR (Biacore), pH 6
row,Kd,Binder
1,18.6 nM,B1
2,25.1 nM,B2
3,40.4 nM,B3
4,2000 nM,B4
5,39.8 nM,B5
6,31.7 nM,B6
7,159 nM,B7
8,13.3 nM,B8
9,8.6 nM,B9
10,7400 nM,B10
11,23.9 nM,B11
12,165 nM,B12
13,15.2 nM,B13
14,6.6 nM,B14
15,5.8 nM,B15
16,26.5 nM,B16
17,9.6 nM,B17
18,194 nM,B18
19,21.1 nM,B19
20,6700 nM,B20
21,13.6 nM,B21

row,Kd,Binder
1,9.4 nM,B22
2,240 nM,B23
3,2.5 nM,B24
4,51.7 nM,B25
5,36.4 nM,B26
6,7.4 nM,B27
7,23.3 nM,B28
8,38.4 nM,B29
9,25.3 nM,B30
10,3.7 nM,B31
11,273 nM,B32
12,6.1 nM,B33
13,9.3 nM,B34
14,20 nM,B35
15,8 nM,B36
16,16.4 nM,B37
17,10.4 nM,B38
18,35 nM,B39
19,5.7 nM,B40
20,11.3 nM,B41
21,9 nM,B42

row,Kd,Binder
1,42.5 nM,B43
2,114 nM,B44
3,1.1 nM,B45
4,13.4 nM,B46
5,6.1 nM,B47
6,9.9 nM,B48
7,12.5 nM,B49
8,96.9 nM,B50
9,1.3 nM,B51
10,11.6 nM,B52
11,63.5 nM,B53
12,24.1 nM,B54
13,25.3 nM,B55
14,10.5 nM,B56
15,17.6 nM,B57
16,14600 nM,B58
17,26.5 nM,B59
18,13.2 nM,B60
19,1.2 nM,B61
